Reference: patent US20160200782A1

Columns and labels:
Test in all cases: cell-based or functional assay
NEK11(h) (human) = NEK11(h) (human) (UniProt Q8NG66)
CaMKIIβ(h) (human) = CaMKIIβ(h) (human) (UniProt Q13554)
BTK(R28H)(h) (human) = BTK(R28H)(h) (human) (UniProt Q06187)
MAPK2(h) (human) = MAPK2(h) (human) (UniProt P28482)
Pim-3(h) (human) = Pim-3(h) (human) (UniProt Q86V86)
GRK6(h) (human) = GRK6(h) (human) (UniProt P43250)
PAR-1Bα(h) (human) = PAR-1Bα(h) (human) (UniProt Q7KZI7)
PKD2(h) (human) = PKD2(h) (human) (UniProt Q9BZL6)
Met(D1246H)(h) (human) = Met(D1246H)(h) (human) (UniProt P08581)
TAO3(h) (human) = TAO3(h) (human) (UniProt Q9H2K8)
PDGFRβ(h) (human) = PDGFRβ(h) (human) (UniProt P09619)
SGK(h) (human) = SGK(h) (human) (UniProt O00141)
BrSK1(h) (human) = BrSK1(h) (human) (UniProt Q8TDC3)
PASK(h) (human) = PASK(h) (human) (UniProt Q96RG2)
CHK2(I157T)(h) (human) = CHK2(I157T)(h) (human) (UniProt O96017)
MST2(h) (human) = MST2(h) (human) (UniProt Q13188)
GSK3β(h) (human) = GSK3β(h) (human) (UniProt P49841)
MST1(h) (human) = MST1(h) (human) (UniProt Q13043)
EGFR(T790M)(h) (human) = EGFR(T790M)(h) (human) (UniProt P00533)
MAPKAP-K3(h) (human) = MAPKAP-K3(h) (human) (UniProt Q16644)
PRAK(h) (human) = PRAK(h) (human) (UniProt Q8IW41)
[1] = target: CDK7/cyclinH/MAT1(h) (human) (UniProt P50613)
MRCKα(h) (human) = MRCKα(h) (human) (UniProt Q5VT25)
CHK1(h) (human) = CHK1(h) (human) (UniProt O14757)
MARK1(h) (human) = MARK1(h) (human) (UniProt Q9P0L2)
SAPK2a(h) (human) = SAPK2a(h) (human) (UniProt Q16539)
PKCδ(h) (human) = PKCδ(h) (human) (UniProt Q05655)
PKG1β(h) (human) = PKG1β(h) (human) (UniProt Q13976)
Flt4(h) (human) = Flt4(h) (human) (UniProt P35916)
BrSK2(h) (human) = BrSK2(h) (human) (UniProt Q8IWQ3)
CHK2(R145W)(h) (human) = CHK2(R145W)(h) (human) (UniProt O96017)
EphB1(h) (human) = EphB1(h) (human) (UniProt P54762)
CDK6/cyclinD3(h) (human) = CDK6/cyclinD3(h) (human) (UniProt Q00534)
WNK3(h) (human) = WNK3(h) (human) (UniProt Q9BYP7)
EGFR(L858R)(h) (human) = EGFR(L858R)(h) (human) (UniProt P00533)
Src(T341M)(h) (human) = Src(T341M)(h) (human) (UniProt P12931)
TBK1(h) (human) = TBK1(h) (human) (UniProt Q9UHD2)
LIMK1(h) (human) = LIMK1(h) (human) (UniProt P53667)
DDR2(h) (human) = DDR2(h) (human) (UniProt Q16832)
VRK2(h) (human) = VRK2(h) (human) (UniProt Q86Y07)
Met(M1268T)(h) (human) = Met(M1268T)(h) (human) (UniProt P08581)
Ax1(h) (human) = Ax1(h) (human) (UniProt P30530)
PKBβ(h) (human) = PKBβ(h) (human) (UniProt P31751)
BTK(h) (human) = BTK(h) (human) (UniProt Q06187)
ULK3(h) (human) = ULK3(h) (human) (UniProt Q6PHR2)
Flt3(D835Y)(h) (human) = Flt3(D835Y)(h) (human) (UniProt P36888)
[2] = target: CDK9/cyclin T1(h) (human) (UniProt P50750)
HIPK3(h) (human) = HIPK3(h) (human) (UniProt Q9H422)
p70S6K(h) (human) = p70S6K(h) (human) (UniProt P23443)
PKCγ(h) (human) = PKCγ(h) (human) (UniProt P05129)
IRAK1(h) (human) = IRAK1(h) (human) (UniProt P51617)
Src(1-530)(h) (human) = Src(1-530)(h) (human) (UniProt P12931)
PKCβI(h) (human) = PKCβI(h) (human) (UniProt P05771)
EphB3(h) (human) = EphB3(h) (human) (UniProt P54753)
MLCK(h) (human) = target: MLCK(h) (human)
HIPK2(h) (human) = HIPK2(h) (human) (UniProt Q9H2X6)

CDK7/cyclinH/MAT1(h) (human), sequence (P50613 whole entry, chain 1 of 3): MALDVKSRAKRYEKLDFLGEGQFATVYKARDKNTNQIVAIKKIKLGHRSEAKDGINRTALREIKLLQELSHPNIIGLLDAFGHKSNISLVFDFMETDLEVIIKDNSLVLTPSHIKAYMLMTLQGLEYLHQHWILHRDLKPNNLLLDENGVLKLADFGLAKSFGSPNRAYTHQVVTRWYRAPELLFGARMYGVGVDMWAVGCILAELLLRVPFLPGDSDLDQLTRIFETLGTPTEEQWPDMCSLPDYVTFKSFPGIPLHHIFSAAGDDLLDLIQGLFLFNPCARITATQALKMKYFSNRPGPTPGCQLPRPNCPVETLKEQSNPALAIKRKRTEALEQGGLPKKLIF
CDK7/cyclinH/MAT1(h) (human), sequence (P51946 whole entry, chain 2 of 3, further chain): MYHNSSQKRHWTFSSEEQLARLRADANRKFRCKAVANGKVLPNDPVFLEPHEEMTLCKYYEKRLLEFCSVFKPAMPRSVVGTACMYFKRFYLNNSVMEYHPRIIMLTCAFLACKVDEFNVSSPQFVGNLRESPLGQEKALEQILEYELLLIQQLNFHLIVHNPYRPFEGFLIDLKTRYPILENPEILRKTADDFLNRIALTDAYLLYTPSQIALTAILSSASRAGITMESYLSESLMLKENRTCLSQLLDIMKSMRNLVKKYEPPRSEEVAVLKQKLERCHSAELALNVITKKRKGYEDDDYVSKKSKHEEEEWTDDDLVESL
CDK7/cyclinH/MAT1(h) (human), sequence (P51948 whole entry, chain 3 of 3, further chain): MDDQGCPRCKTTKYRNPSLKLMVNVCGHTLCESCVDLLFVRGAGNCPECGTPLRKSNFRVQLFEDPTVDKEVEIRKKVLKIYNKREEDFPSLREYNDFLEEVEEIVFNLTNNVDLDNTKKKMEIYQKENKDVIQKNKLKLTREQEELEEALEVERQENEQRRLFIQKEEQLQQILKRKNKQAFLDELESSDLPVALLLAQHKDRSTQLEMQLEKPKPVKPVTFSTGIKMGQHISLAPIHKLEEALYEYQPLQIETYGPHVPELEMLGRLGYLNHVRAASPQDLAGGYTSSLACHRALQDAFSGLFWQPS
CDK6/cyclinD3(h) (human), sequence (Q00534 whole entry, chain 1 of 2): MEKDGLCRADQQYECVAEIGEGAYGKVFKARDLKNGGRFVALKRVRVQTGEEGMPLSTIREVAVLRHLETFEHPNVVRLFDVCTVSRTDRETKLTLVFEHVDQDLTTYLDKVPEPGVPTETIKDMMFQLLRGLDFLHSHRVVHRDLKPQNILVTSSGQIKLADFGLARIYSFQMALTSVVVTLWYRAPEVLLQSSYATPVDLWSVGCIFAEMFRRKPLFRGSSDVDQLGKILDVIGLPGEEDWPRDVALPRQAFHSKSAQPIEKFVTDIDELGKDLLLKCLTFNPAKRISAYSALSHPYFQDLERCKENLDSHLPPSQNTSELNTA
CDK6/cyclinD3(h) (human), sequence (P30281 whole entry, chain 2 of 2, further chain): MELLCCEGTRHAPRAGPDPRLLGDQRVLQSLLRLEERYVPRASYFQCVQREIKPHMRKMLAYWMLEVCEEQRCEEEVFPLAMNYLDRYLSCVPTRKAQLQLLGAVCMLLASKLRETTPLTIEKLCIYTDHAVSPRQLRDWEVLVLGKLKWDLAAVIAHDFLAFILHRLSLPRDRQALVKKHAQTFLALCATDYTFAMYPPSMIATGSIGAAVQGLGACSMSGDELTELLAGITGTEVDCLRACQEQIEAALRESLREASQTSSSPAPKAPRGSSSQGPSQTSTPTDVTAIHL
SAPK2a(h) (human), sequence (Q16539 whole entry): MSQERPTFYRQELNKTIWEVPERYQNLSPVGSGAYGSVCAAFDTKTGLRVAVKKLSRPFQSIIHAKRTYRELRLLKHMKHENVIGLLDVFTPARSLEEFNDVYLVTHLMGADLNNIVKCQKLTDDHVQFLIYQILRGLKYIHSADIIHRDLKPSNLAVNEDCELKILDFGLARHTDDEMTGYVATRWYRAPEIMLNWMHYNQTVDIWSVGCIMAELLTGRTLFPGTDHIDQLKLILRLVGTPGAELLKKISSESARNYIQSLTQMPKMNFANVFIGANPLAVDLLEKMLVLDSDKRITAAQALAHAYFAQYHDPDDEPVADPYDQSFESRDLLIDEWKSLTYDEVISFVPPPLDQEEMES
TAO3(h) (human), sequence (Q9H2K8 1-315 limits assumed): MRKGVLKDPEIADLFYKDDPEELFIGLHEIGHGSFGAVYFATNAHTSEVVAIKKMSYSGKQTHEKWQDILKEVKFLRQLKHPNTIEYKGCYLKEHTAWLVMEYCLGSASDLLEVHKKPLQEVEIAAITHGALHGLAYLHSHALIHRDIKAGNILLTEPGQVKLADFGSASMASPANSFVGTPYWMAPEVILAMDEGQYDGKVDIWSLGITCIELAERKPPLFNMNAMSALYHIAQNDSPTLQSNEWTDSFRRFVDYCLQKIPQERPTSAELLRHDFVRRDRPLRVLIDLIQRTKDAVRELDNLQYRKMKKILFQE
GRK6(h) (human), sequence (P43250 whole entry): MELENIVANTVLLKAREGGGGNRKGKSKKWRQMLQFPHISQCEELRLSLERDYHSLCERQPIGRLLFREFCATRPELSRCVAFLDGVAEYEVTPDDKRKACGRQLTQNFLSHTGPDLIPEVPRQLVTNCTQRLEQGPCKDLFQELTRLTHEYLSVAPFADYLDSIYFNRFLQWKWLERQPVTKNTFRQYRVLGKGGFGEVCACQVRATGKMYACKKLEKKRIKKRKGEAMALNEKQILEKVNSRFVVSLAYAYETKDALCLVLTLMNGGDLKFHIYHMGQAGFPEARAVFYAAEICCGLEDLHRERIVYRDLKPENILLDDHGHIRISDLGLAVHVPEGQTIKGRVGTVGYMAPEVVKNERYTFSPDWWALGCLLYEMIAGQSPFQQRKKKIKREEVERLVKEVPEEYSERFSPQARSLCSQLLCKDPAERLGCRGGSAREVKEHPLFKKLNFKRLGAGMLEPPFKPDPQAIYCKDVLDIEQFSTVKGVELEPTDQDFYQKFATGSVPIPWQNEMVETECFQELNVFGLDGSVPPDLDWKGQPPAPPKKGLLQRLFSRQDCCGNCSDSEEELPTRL
Flt4(h) (human), sequence (P35916 800-1363 limits assumed): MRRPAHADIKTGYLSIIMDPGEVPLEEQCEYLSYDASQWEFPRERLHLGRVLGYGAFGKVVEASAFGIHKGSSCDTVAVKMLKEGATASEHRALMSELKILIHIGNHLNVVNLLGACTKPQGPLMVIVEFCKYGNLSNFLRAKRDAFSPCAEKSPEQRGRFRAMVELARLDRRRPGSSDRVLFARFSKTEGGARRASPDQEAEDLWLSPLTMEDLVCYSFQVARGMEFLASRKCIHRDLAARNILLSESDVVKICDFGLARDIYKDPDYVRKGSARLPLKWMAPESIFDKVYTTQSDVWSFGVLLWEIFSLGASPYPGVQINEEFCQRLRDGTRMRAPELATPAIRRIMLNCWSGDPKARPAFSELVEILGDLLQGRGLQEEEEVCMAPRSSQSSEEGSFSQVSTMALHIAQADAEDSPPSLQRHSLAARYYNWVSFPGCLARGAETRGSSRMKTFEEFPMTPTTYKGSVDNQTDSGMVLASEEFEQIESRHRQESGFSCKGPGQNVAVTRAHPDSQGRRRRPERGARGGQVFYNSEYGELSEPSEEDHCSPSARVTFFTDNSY
CHK2(R145W)(h) (human), sequence (O96017 5-543 R145W limits assumed): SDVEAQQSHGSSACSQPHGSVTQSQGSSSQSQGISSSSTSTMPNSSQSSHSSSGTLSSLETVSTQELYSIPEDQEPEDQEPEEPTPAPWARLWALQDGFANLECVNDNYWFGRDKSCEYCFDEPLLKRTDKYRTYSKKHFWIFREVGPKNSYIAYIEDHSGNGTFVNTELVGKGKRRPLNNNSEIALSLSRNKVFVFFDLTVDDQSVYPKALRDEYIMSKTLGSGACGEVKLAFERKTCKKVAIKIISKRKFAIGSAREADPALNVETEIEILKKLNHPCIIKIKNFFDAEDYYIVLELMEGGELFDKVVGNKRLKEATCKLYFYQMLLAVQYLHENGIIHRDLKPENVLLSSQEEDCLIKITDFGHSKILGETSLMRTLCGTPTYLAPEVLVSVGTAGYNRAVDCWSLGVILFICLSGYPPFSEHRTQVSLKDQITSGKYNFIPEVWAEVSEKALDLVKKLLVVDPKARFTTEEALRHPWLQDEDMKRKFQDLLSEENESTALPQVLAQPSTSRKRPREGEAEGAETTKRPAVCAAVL
PKCδ(h) (human), sequence (Q05655 whole entry, stated change not applied): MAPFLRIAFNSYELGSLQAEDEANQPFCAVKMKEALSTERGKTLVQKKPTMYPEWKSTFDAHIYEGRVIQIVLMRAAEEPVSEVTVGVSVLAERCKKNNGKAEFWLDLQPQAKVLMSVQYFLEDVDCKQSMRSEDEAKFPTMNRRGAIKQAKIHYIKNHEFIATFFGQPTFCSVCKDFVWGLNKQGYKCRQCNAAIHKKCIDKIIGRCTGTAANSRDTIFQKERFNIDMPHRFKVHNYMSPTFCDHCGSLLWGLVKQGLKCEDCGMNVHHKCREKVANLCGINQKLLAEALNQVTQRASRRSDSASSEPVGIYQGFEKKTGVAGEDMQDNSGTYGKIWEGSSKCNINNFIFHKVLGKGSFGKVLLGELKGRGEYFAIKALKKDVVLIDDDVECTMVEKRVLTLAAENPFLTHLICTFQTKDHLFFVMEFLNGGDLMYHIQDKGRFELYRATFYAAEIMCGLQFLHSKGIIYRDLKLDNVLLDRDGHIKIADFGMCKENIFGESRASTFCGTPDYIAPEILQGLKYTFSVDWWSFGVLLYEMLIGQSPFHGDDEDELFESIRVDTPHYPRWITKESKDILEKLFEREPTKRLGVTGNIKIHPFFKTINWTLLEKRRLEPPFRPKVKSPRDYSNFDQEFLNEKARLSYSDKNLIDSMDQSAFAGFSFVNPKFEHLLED
CHK2(I157T)(h) (human), sequence (O96017 5-543 I157T limits assumed): as the sequence (O96017 5-543 R145W limits assumed) above, with W141R, I153T counted along it

Substance: MMI-0100 (peptide)
- % activity (NEK11(h) (human)): 102%
- % activity (CaMKIIβ(h) (human)): 58%
- % activity (BTK(R28H)(h) (human)): 91%
- % activity (MAPK2(h) (human)): 98%
- % activity (Pim-3(h) (human)): 98%
- % activity (GRK6(h) (human)): 131%
- % activity (PAR-1Bα(h) (human)): 62%
- % activity (PKD2(h) (human)): 84%
- % activity (Met(D1246H)(h) (human)): 99%
- % activity (TAO3(h) (human)): 45%
- % activity (PDGFRβ(h) (human)): 116%
- % activity (SGK(h) (human)): 128%
- % activity (BrSK1(h) (human)): 100%
- % activity (PASK(h) (human)): 81%
- % activity (CHK2(I157T)(h) (human)): 97%
- % activity (MST2(h) (human)): 98%
- % activity (GSK3β(h) (human)): 113%
- % activity (MST1(h) (human)): 85%
- % activity (EGFR(T790M)(h) (human)): 106%
- % activity (MAPKAP-K3(h) (human)): 27%
- % activity (PRAK(h) (human)): 159%
- % activity [1]: 89%
- % activity (MRCKα(h) (human)): 98%
- % activity (CHK1(h) (human)): 97%
- % activity (MARK1(h) (human)): 109%
- % activity (SAPK2a(h) (human)): 110%
- % activity (PKCδ(h) (human)): 100%
- % activity (PKG1β(h) (human)): 71%
- % activity (Flt4(h) (human)): 135%
- % activity (BrSK2(h) (human)): 129%
- % activity (CHK2(R145W)(h) (human)): 97%
- % activity (EphB1(h) (human)): 99%
- % activity (CDK6/cyclinD3(h) (human)): 103%
- % activity (WNK3(h) (human)): 100%
- % activity (EGFR(L858R)(h) (human)): 76%
- % activity (Src(T341M)(h) (human)): 98%
- % activity (TBK1(h) (human)): 106%
- % activity (LIMK1(h) (human)): 103%
- % activity (DDR2(h) (human)): 105%
- % activity (VRK2(h) (human)): 112%
- % activity (Met(M1268T)(h) (human)): 114%
- % activity (Ax1(h) (human)): 81%
- % activity (PKBβ(h) (human)): 284%
- % activity (BTK(h) (human)): 112%
- % activity (ULK3(h) (human)): 142%
- % activity (Flt3(D835Y)(h) (human)): 120%
- % activity [2]: 228%
- % activity (HIPK3(h) (human)): 105%
- % activity (p70S6K(h) (human)): 89%
- % activity (PKCγ(h) (human)): 94%
- % activity (IRAK1(h) (human)): 97%
- % activity (Src(1-530)(h) (human)): 95%
- % activity (PKCβI(h) (human)): 88%
- % activity (EphB3(h) (human)): 109%
- % activity (MLCK(h) (human)): 85%
- % activity (HIPK2(h) (human)): 98%

Substance: MMI-0500 (peptide)
- % activity (NEK11(h) (human)): 2%
- % activity (CaMKIIβ(h) (human)): 3%
- % activity (BTK(R28H)(h) (human)): 10%
- % activity (MAPK2(h) (human)): 60%
- % activity (Pim-3(h) (human)): 37%
- % activity (GRK6(h) (human)): 174%
- % activity (PAR-1Bα(h) (human)): 97%
- % activity (PKD2(h) (human)): 10%
- % activity (Met(D1246H)(h) (human)): 150%
- % activity (TAO3(h) (human)): 12%
- % activity (PDGFRβ(h) (human)): 40%
- % activity (SGK(h) (human)): 2%
- % activity (BrSK1(h) (human)): 72%
- % activity (PASK(h) (human)): 9%
- % activity (CHK2(I157T)(h) (human)): 3%
- % activity (MST2(h) (human)): 2%
- % activity (GSK3β(h) (human)): 238%
- % activity (MST1(h) (human)): 3%
- % activity (EGFR(T790M)(h) (human)): 70%
- % activity (MAPKAP-K3(h) (human)): 9%
- % activity (PRAK(h) (human)): 95%
- % activity [1]: 15%
- % activity (MRCKα(h) (human)): 5%
- % activity (CHK1(h) (human)): 65%
- % activity (MARK1(h) (human)): 110%
- % activity (SAPK2a(h) (human)): 52%
- % activity (PKCδ(h) (human)): 61%
- % activity (PKG1β(h) (human)): 24%
- % activity (Flt4(h) (human)): 73%
- % activity (BrSK2(h) (human)): 84%
- % activity (CHK2(R145W)(h) (human)): 3%
- % activity (EphB1(h) (human)): 37%
- % activity (CDK6/cyclinD3(h) (human)): 23%
- % activity (WNK3(h) (human)): 9%
- % activity (EGFR(L858R)(h) (human)): 26%
- % activity (Src(T341M)(h) (human)): 59%
- % activity (TBK1(h) (human)): 16%
- % activity (LIMK1(h) (human)): 87%
- % activity (DDR2(h) (human)): 79%
- % activity (VRK2(h) (human)): 169%
- % activity (Met(M1268T)(h) (human)): 239%
- % activity (Ax1(h) (human)): 12%
- % activity (PKBβ(h) (human)): 21%
- % activity (BTK(h) (human)): 18%
- % activity (ULK3(h) (human)): 177%
- % activity (Flt3(D835Y)(h) (human)): 65%
- % activity [2]: 6%
- % activity (HIPK3(h) (human)): 85%
- % activity (p70S6K(h) (human)): 3%
- % activity (PKCγ(h) (human)): 6%
- % activity (IRAK1(h) (human)): 5%
- % activity (Src(1-530)(h) (human)): 21%
- % activity (PKCβI(h) (human)): 1%
- % activity (EphB3(h) (human)): 79%
- % activity (MLCK(h) (human)): 0%
- % activity (HIPK2(h) (human)): 38%

Substance: MMI-0200 (peptide)
- % activity (NEK11(h) (human)): 95%
- % activity (CaMKIIβ(h) (human)): 53%
- % activity (BTK(R28H)(h) (human)): 104%
- % activity (MAPK2(h) (human)): 105%
- % activity (Pim-3(h) (human)): 94%
- % activity (GRK6(h) (human)): 132%
- % activity (PAR-1Bα(h) (human)): 110%
- % activity (PKD2(h) (human)): 78%
- % activity (Met(D1246H)(h) (human)): 139%
- % activity (TAO3(h) (human)): 102%
- % activity (PDGFRβ(h) (human)): 137%
- % activity (SGK(h) (human)): 115%
- % activity (BrSK1(h) (human)): 93%
- % activity (PASK(h) (human)): 60%
- % activity (CHK2(I157T)(h) (human)): 85%
- % activity (MST2(h) (human)): 104%
- % activity (GSK3β(h) (human)): 132%
- % activity (MST1(h) (human)): 72%
- % activity (EGFR(T790M)(h) (human)): 113%
- % activity (MAPKAP-K3(h) (human)): 39%
- % activity (PRAK(h) (human)): 115%
- % activity [1]: 67%
- % activity (MRCKα(h) (human)): 103%
- % activity (CHK1(h) (human)): 115%
- % activity (MARK1(h) (human)): 102%
- % activity (SAPK2a(h) (human)): 107%
- % activity (PKCδ(h) (human)): 101%
- % activity (PKG1β(h) (human)): 57%
- % activity (Flt4(h) (human)): 105%
- % activity (BrSK2(h) (human)): 102%
- % activity (CHK2(R145W)(h) (human)): 81%
- % activity (EphB1(h) (human)): 95%
- % activity (CDK6/cyclinD3(h) (human)): 100%
- % activity (WNK3(h) (human)): 97%
- % activity (EGFR(L858R)(h) (human)): 120%
- % activity (Src(T341M)(h) (human)): 56%
- % activity (TBK1(h) (human)): 98%
- % activity (LIMK1(h) (human)): 109%
- % activity (DDR2(h) (human)): 104%
- % activity (VRK2(h) (human)): 109%
- % activity (Met(M1268T)(h) (human)): 143%
- % activity (Ax1(h) (human)): 99%
- % activity (PKBβ(h) (human)): 250%
- % activity (BTK(h) (human)): 100%
- % activity (ULK3(h) (human)): 164%
- % activity (Flt3(D835Y)(h) (human)): 115%
- % activity [2]: 103%
- % activity (HIPK3(h) (human)): 105%
- % activity (p70S6K(h) (human)): 84%
- % activity (PKCγ(h) (human)): 101%
- % activity (IRAK1(h) (human)): 101%
- % activity (Src(1-530)(h) (human)): 75%
- % activity (PKCβI(h) (human)): 98%
- % activity (EphB3(h) (human)): 128%
- % activity (MLCK(h) (human)): 103%
- % activity (HIPK2(h) (human)): 102%
